# Values of other authors in article PMC2728785 (Biomaterials, 2009).
# Experiments:
# [1] = versus unmodified bovine hemoglobin
compound,measurement,setting,value
12 copies of a 5 kDa PEG conjugated to bovine hemoglobin: PEGylated bovine hemoglobin from the literature,increase of blood half-life,[1],14 factor
same,increase of systemic availability,[1],8 factor
CC(C)(S)CN [1-amino-2-methyl-2-propanethiol],degradation rate relative to the less hindered cysteamine linker,disulfide bond prepared from the sterically hindered linker,about 100 times slower
"NCCS [cysteamine linker, cysteamine]",t1/2 of GSH-dependent disulfide degradation,disulfide bond prepared from the linker,3 min
